The assay addresses TssL-His expressed in A. tumefaciens ΔtssMΔtssL (pTrc-TssL-His) (Agrobacterium tumefaciens). The assay can be described thus: pull-down.

As to “Hcp, endogenous in A. tumefaciens (natural protein)”, the Hcp signal relative to TssL-His in the bound fraction, H2O-treated cells was determined as 0.21.

The values are drawn from article PMC3346141.
